The data set in a line: Rate of hydrolysis of PEG prodrugs in rat plasma (HPLC). In kind it is in vitro ADME. Particulars: 37° C., disappearance of PEG derivative. Here is the method:
The rates of hydrolysis were obtained by employing a C8 reversed phase column (Zorbax® SB-C8) using a gradient mobile phase made of (a) 0.1 M triethylammonium acetate buffer and (b) acetonitrile. A flow rate of 1 mL/min was used, and chromatograms were monitored using a UV detector. For hydrolysis in buffer, PEG derivatives were dissolved in 0.1 M pH 7.4 PBS at a concentration of 5 mg/mL, while for hydrolysis in plasma, the derivatives were dissolved in distilled water at a concentration of 20 mg/100 μL and 900 μL of rat plasma was added to this solution. The mixture was vortexed for 2 min and divided into 2 mL glass vials with 100 μL of the aliquot per each vial. The solutions were incubated at 37° C. for various periods of time. A mixture of methanol-acetonitrile (1:1, v/v, 400 μL) was added to a vial at the proper interval and the mixture was vortexed for 1 min, followed by filtration through […] filter membrane (optionally followed by a second filtration through […] filter membrane). An aliquot of 20 μL of the filtrate was injected into the HPLC. On the basis of the peak area, the amounts of native compound and PEG derivative were estimated, and the half-life of each compound in different media was calculated using linear regression analysis from the disappearance of PEG derivative.

Turning to PEG-[Lys (DGA-SCH AF)2]2 [Compound 12a], the t1/2α of hydrolysis is 5 h and the t1/2β of hydrolysis amounted to 15 h.

Source of the values: patent US20090203706A1, “LYSINE-BASED POLYMERIC LINKERS” (priority 2006, published 2009).
